Laboratory results: PMC7170532 (2020)

T1: pro-myostatin (uncleavable precursor, D99A/R263A/R266A) (human, UniProt O14793 24-375, D99A | R263A | R266A)
T1 sequence: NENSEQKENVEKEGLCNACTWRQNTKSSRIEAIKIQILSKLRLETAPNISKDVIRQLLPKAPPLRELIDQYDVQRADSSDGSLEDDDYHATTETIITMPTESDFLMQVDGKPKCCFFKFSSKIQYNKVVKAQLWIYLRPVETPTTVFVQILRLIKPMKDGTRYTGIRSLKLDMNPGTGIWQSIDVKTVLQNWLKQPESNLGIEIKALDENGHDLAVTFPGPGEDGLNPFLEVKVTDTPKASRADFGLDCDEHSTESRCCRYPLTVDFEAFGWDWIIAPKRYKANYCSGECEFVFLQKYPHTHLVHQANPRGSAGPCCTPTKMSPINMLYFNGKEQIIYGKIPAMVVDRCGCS

B1: 29H4-16 human IgG4 (antibody, V domains shown)
VH: QIQLVQSGGGVVQPGRSLRLSCAASGFTFSSYGMHWVRQAPGKGLEWVAVISYDGSRKYYADSVKGRFTISRDNSKNTLYLQMNSLRAEDTAVYYCARDLLVRFLYWSHYYGMDVWGQGTTVTVSS
VL: QPVLTQPPSASGTPGQRVTISCSGSSSNIGSNPVHWYQQLPGTAPKLLIYDDNQRPSGVPDRFSGSKSGTSASLVISGLQSDDEADYYCAAWDDSLNSVFGGGTKLTVL
B2: 29H4-16 Fab (Fab, V domains shown)
VH: B1 VH
VL: B1 VL

Key:
latent myostatin = latent myostatin (human, UniProt O14793 267-375); assay: BLI
[1] = target: T1, pro-myostatin (uncleavable precursor, …); assay: BLI

Binder | Kd (latent myostatin) [nM] | Kd [1] [nM]
B1 | < 0.001 | < 0.001
B2 | 1.76 | 1.51
